From patent US20160115247A1, “SINGLE DOMAIN ANTIBODIES DIRECTED AGAINST INTRACELLULAR ANTIGENS” (SINGH BIOTECHNOLOGY, LLC, priority 2014, published 2016)
Several values for one entry are separate records, joined by “and”; a condition that tells them apart may be missing. Identical values can stand only once.

Tests used:
TNF-alpha = target: T1, TNF-alpha (Homo sapiens, UniProt P01375); assay: Inhibition of TNF-alpha cytotoxicity in U937 cells; type: cell-based; details: constant dose of TNF-alpha at EC50; for inhibition of killing of U937 by TNF-alpha (in words): FIG. 14
T1 construct: host or cells: added to U937 cells
T1 sequence (P01375 77-233 limits assumed): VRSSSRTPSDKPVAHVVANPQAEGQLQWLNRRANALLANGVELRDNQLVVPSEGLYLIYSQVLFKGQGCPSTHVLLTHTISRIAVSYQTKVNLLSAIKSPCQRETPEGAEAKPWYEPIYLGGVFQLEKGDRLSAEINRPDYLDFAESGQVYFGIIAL

MDA-MB-231 cells = assay: MTT proliferation assay, MDA-MB-231; type: cell-based, human;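 also: human cancer cells kept at 37 °C in humidified 5% CO2, with treated groups compared against a vehicle control group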
PANC-1 cells = assay: MTT proliferation assay, PANC-1; type: cell-based, human; details: for Mean Absorbance (570 nM) ± S.E.: single experiments 1-3

B1: anti-TNF-alpha VHH62: anti-TNF-alpha sdAb, SEQ ID NO. 47 (protein)
VHH: QVQLVESGGGPVQAGETLRLSCTASGFTFAEADMGWYRQAPGHECELVSTITTEGITSEASSYYADSVRGRFTISRDNAKNMVYLQMNSLKPEDTAVYYCAPDPYAYSTYSDYCSWAQGTQGTLVTVSS
modifications: camelid
TNF-alpha
  IC50 (inhibition of TNF-alpha cytotoxicity against U937): approximately 713.6 ug/ml
  inhibition of killing of U937 by TNF-alpha (in words): inhibit killing of U937 by TNF-alpha

B2: anti-TNF-alpha VHH69: anti-TNF-alpha sdAb, SEQ ID NO. 46 (protein)
VHH: EVQLVESGGGSVLAGGSLRLSCVASGFTSRYNYMAWFRQAPGKEREGVATIGTASGSADYYGSVKDRFTISQDNAKNTVYLQMNSLKPEDTAMYYCAARTYGTISLTPSDYRYWGQGTLVTVSS
modifications: camelid
TNF-alpha
  IC50 (inhibition of TNF-alpha cytotoxicity against U937): greater than 208.055 ug/ml
  inhibition of killing of U937 by TNF-alpha (in words): inhibit killing of U937 by TNF-alpha

B3: B.VHH14: anti-STAT3 single-domain antibody VHH14, SEQ ID NO. 4 (protein)
VHH: QVQLVESGGGSVQAGGSLRLSCVASTYTGCMGWFRQAPGKEREGVAALSSRGFAGHYTDSVKGRFSISRDYVKNAVYLQMNTVKPEDAAMYYCAAREGWECGETWLDRTAGGHTYWGQGTLVTVSS
modifications: camelid
MDA-MB-231 cells; 3 days of treatment, 10.0 μg/ml
  % Inhibition of cell proliferation: 23.1%
MDA-MB-231 cells; 3 days of treatment, 100.0 μg/ml
  % Inhibition of cell proliferation: 57.0%
MDA-MB-231 cells; 5 days of treatment, 0.5 μg/ml
  % Inhibition of cell proliferation: 0%
MDA-MB-231 cells; 5 days of treatment, 1.0 μg/ml
  % Inhibition of cell proliferation: 0%
MDA-MB-231 cells; 5 days of treatment, 10.0 μg/ml
  % Inhibition of cell proliferation: 5.5%
MDA-MB-231 cells; 5 days of treatment, 100.0 μg/ml
  % Inhibition of cell proliferation: 18.9%
MDA-MB-231 cells; Day 3 post treatment, 0.5 μg/ml
  Mean Absorbance (570 nM) ± S.E.: 0.666 ± 0.022
MDA-MB-231 cells; Day 3 post treatment, 1.0 μg/ml
  Mean Absorbance (570 nM) ± S.E.: 0.644 ± 0.045
MDA-MB-231 cells; Day 3 post treatment, 10.0 μg/ml
  Mean Absorbance (570 nM) ± S.E.: 0.456 ± 0.048
MDA-MB-231 cells; Day 3 post treatment, 100 μg/ml
  Mean Absorbance (570 nM) ± S.E.: 0.255 ± 0.005
MDA-MB-231 cells; Day 5 post treatment, 0.5 μg/ml
  Mean Absorbance (570 nM) ± S.E.: 0.733 ± 0.038
MDA-MB-231 cells; Day 5 post treatment, 1.0 μg/ml
  Mean Absorbance (570 nM) ± S.E.: 0.794 ± 0.023
MDA-MB-231 cells; Day 5 post treatment, 10.0 μg/ml
  Mean Absorbance (570 nM) ± S.E.: 0.640 ± 0.011
MDA-MB-231 cells; Day 5 post treatment, 100 μg/ml
  Mean Absorbance (570 nM) ± S.E.: 0.549 ± 0.023
MDA-MB-231 cells; Table 6, Day 3, 10.0 μg/ml
  Mean Absorbance (570 nM) ± S.E., Overall Mean: 0.504 ± 0.021
MDA-MB-231 cells; Table 6, Day 3, 10.0 μg/ml, single experiments 1-4
  Mean Absorbance (570 nM) ± S.E.: 0.456 ± 0.048 and 0.499 ± 0.018 and 0.502 ± 0.048 and 0.559 ± 0.041
MDA-MB-231 cells; Table 6, Day 3, 100 μg/ml
  Mean Absorbance (570 nM) ± S.E., Overall Mean: 0.302 ± 0.043
MDA-MB-231 cells; Table 6, Day 3, 100 μg/ml, single experiments 1-4
  Mean Absorbance (570 nM) ± S.E.: 0.255 ± 0.005 and 0.357 ± 0.019 and 0.308 ± 0.021 and 0.287 ± 0.021
MDA-MB-231 cells; Table 7, Day 5, 10.0 μg/ml
  Mean Absorbance (570 nM) ± S.E., Overall Mean: 0.688 ± 0.131
MDA-MB-231 cells; Table 7, Day 5, 100 μg/ml
  Mean Absorbance (570 nM) ± S.E., Overall Mean: 0.475 ± 0.0690
MDA-MB-231 cells; post 3 days, 10.0 μg/ml
  Overall Average % Inhibition: 26.2%
MDA-MB-231 cells; post 3 days, 10.0 μg/ml, single experiments 1-4
  Mean Growth Inhibition: 23.1% and 20.0% and 38.5% and 23.3%
MDA-MB-231 cells; post 3 days, 100 μg/ml
  Overall Average % Inhibition: 55.7%
MDA-MB-231 cells; post 3 days, 100 μg/ml, single experiments 1-4
  Mean Growth Inhibition: 57.0% and 42.8% and 62.3% and 60.6%
MDA-MB-231 cells; post 5 days, 10.0 μg/ml
  Overall Average % Inhibition: 14.9%
MDA-MB-231 cells; post 5 days, 100 μg/ml
  Overall Average % Inhibition: 38.6%

B4: H.VHH14: anti-STAT3 sdAb VHH14, SEQ ID NO. 4 (protein)
VHH: B3 VHH
modifications: camelid
PANC-1 cells; Day 3, 10.0 μg/ml
  Mean Absorbance (570 nM) ± S.E., Overall Mean: 1.089 ± 0.085
  Mean Absorbance (570 nM) ± S.E.: 0.920 ± 0.133 and 1.183 ± 0.114 and 1.163 ± 0.044
PANC-1 cells; Day 3, 100 μg/ml
  Mean Absorbance (570 nM) ± S.E., Overall Mean: 0.906 ± 0.054
  Mean Absorbance (570 nM) ± S.E.: 0.808 ± 0.239 and 0.993 ± 0.088 and 0.916 ± 0.088
PANC-1 cells; Day 5, 10.0 μg/ml
  Mean Absorbance (570 nM) ± S.E., Overall Mean: 1.368 ± 0.247
  Mean Absorbance (570 nM) ± S.E.: 1.859 ± 0.033 and 1.165 ± 0.015 and 1.081 ± 0.103
PANC-1 cells; Day 5, 100 μg/ml
  Mean Absorbance (570 nM) ± S.E., Overall Mean: 0.754 ± 0.333
